Test results as given in article PMC3582769 (Molecular cell, 2013).

Biological target: ELOBC heterodimer (UniProt Q15370;Q15369)
Experiment: SEC-MALS

Sequence of ELOBC heterodimer (Q15370 whole entry, chain 1 of 2): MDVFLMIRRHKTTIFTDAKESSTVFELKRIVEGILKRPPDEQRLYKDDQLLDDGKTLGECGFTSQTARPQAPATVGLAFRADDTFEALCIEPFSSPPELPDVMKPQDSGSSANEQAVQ
Sequence of ELOBC heterodimer (Q15369 whole entry, chain 2 of 2): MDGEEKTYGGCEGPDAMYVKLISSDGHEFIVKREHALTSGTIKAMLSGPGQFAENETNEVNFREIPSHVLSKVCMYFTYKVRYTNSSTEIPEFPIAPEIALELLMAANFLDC

B1: Strep-Vif (HIV-1 Vif, wild type) (natural protein)
chain: not shown
- binding result: binds
